This note sets out measurements from publication PMC5978004.

For the assay, the target named is human MALT1 (mammalian expression) (human) (UniProt Q9UDY8).
UniProt Q9UDY8, sequence (Q9UDY8 whole entry): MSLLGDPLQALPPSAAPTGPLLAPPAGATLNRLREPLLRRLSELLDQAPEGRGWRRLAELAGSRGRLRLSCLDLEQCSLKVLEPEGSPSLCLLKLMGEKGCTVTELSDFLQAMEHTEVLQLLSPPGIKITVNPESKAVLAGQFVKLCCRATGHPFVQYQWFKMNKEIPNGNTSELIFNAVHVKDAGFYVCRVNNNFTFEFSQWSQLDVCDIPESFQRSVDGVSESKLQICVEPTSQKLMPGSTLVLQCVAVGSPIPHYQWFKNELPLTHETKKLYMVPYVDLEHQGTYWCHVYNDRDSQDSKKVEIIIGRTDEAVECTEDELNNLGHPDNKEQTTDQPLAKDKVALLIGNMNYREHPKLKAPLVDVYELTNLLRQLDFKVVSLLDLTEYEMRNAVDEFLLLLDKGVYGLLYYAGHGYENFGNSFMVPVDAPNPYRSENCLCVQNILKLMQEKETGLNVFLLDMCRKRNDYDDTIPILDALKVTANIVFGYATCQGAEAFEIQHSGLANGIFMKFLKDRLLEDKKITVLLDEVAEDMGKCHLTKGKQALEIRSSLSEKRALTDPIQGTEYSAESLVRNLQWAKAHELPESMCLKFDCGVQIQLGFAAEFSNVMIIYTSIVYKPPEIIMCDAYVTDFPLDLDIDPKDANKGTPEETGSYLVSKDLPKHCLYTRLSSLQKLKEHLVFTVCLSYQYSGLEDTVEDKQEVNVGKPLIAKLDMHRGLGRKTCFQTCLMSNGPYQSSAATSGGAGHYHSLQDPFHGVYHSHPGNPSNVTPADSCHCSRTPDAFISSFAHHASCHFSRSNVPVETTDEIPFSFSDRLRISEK

For the substance “Nematostella vectensis Bcl10 (NvBcl10), E-tagged, in pCAGGS (natural protein)”, the human MALT1-dependent NF-κB luciferase reporter induction in MALT1-deficient HEK293T cells with or without human MALT1 is 2.5 fold.
